Patent US10444224B2, “Method for RNA detection and quantification” (Cornell University, priority 2011, dated 2019)
“And” between values parts separate entries of the source, which are not always exact repeats. Equal entries are not always repeated. “Also recorded” adds a separate entry of the source.

How the values were obtained:
[1] = test system: HEK293 cells; assay: Cytotoxicity assay after illumination (MTT); assay type: cell-based; conditions: 10 μM fluorophore, 10 min illumination
Experimental: HEK293 cells were grown on PLL-coated glass-bottom dishes as indicated above. At ˜80% confluency, the media was removed and cells were incubated for 30 min with fresh media alone, media plus vehicle (0.2% DMSO) or media plus 10 μM DMHBI, DFHBI or MG. Cells were then illuminated for 10 min at 37° C. with a Nikon Intensilight C-HGFIE 130 W mercury lamp with FITC (DMHBI and DFHBI) or Cy5 (malachite green) filter sets (Chroma Technology) on an inverted epifluorescence microscope. Control cells were illuminated for 10 min under identical conditions but in the absence of any fluorophore. Cells were then washed several times with media to remove fluorophores and assayed for mitochondrial activity with MTT (3-[4,5-dimethylthiazol-2-yl]-2,5-diphenyltetrazolium bromide) based cell proliferation kit (Roche) and prepared according to manufacturers instructions. MTT absorbance readings were performed at 550 nm with 650 nm absorbance used for background subtraction. Values are reported as percent change in viability compared to control samples (illumination without fluorophore or without vehicle) and each condition was repeated in triplicate and averaged.

[2] = test system: HEK293 cells; assay: Nonspecific fluorescence activation by cellular components; assay type: cell-based; conditions: 10 μM, 30 min
Experimental: HEK293 cells were grown on PLL-coated glass-bottom dishes (MatTek) in DMEM plus 10% FBS to ˜80% confluency. Media was removed, cells were washed twice with microscopy media (20 mM HEPES pH 7.4, 119 mM NaCl, 5 mM KCl, 2 mM CaCl2, 2 mM MgCl2, and 30 mM glucose) and then incubated for 30 min with microscopy media plus vehicle (0.2% DMSO) or 10 μM N,N-Dimethyl-4′-nitro-4-stilbenamine, thiazole orange, malachite green, or DFHBI. Live fluorescence images were then taken with a CoolSnap HQ2 CCD camera through a 40× oil objective mounted on a Nikon TE2000 microscope and analyzed with the NIS-Elements software.

[3] = Sensor activation rate, ADP sensor; assay type: biochemical; conditions: 1 mM ADP, 37° C.
Experimental: A solution of RNA sensor (1 μM) and DFHBI (10 μM) was incubated with continuous stirring at 37° C. in a buffer containing 40 mM HEPES pH 7.4, 125 mM KCl and 1 mM MgCl2. The target metabolite (1 mM) was then rapidly added to the stirring solutions and fluorescence emission was recorded over a 15 min period under continuous illumination at 37° C. using the following instrumental parameters: excitation wavelength, 460 nm; emission wavelength, 500 nm; increment of data point collection, 0.05 s; slit widths, 10 nm. The fluorescence increase was then plotted against exposure time and normalized to the maximum intensity of each fluorophore.

[4] = test system: endogenous ADP levels in living E. coli cells; assay: Live cell imaging of ADP dynamics with the ADP sensor; assay type: cell-based; conditions: 200 μM DFHBI
Experimental: BL21-A Star E. coli cells (Invitrogen) were transformed with 40 ng of plasmid DNA expressing the tRNA-sensor chimeras in pET28c under the control of a T7 promoter. Cells were plated, grown overnight and single colonies were picked for inoculation in Luria Broth containing kanamycin (LB-Kan). At OD600=0.4, 1 mM of IPTG was added to the culture and shaking was continued at 37° C. for more 2 hours. 100 uL of culture was then removed, spun down to pelleted the culture, and resuspended in 2 mL of pH 6.0 M9 minimal media. A 200 μl aliquot of resuspended culture was then plated on poly-L-lysine (PLL)-coated 24-well glass-bottom dishes (MatTek) and incubated for 45 minutes at 37° C. Adherent cells were washed twice and then incubated with 200 μM DFHBI in pH 6.0 M9 minimal media for 45 min at 37° C. Cells then were washed twice and incubated with M9 media containing 200 μM DFHBI and the appropriate carbon source (2 mg/ml glucose, 6.65 mg/ml potassium acetate, 4.05 mg/ml glycerol or 5.51 mg/ml succinate). Live fluorescence images were taken with a CoolSnap HQ2 CCD camera through a 60× oil objective mounted on a Nikon TE2000 microscope and analyzed with the NIS-Elements software. The filter set used was a sputter coated filter cube with excitation filter 470/40, dichroic mirror 495 (long pass) and emission filter 525/50 (Chroma Technology).
Cells transformed with ADP sensor were grown overnight in LB-Kan. Cultures were then diluted to OD600=0.1 in 200 mL LB-Kan and grown to OD600=0.4. Cells were then induced for 2 hours with 1 mM IPTG at 37° C. with constant shaking. The entire culture was split in two samples and then placed in a centrifuged for 5 min at 1,000×g. Pellets were then washed once and resuspended in […] of M9 media containing 200 μM DFHBI and either 2.00 mg/ml glucose or 6.68 mg/ml potassium acetate as the carbon source. […] Aliquots of culture were removed every 30 min, pelleted, lysed, and ADP levels were measured with an ADP Fluorometric Assay Kit (Abcam) according to manufacturer's instructions.

[5] = Spinach-based RNA sensor fluorescence in response to ADP; assay type: biochemical
Experimental: Dose-response curves for each sensor in response to the target metabolite were determined by measuring the increase in fluorescence as a function of increasing target concentration in the presence of a fixed concentration of RNA sensor (10-50 nM) and a fixed concentration of fluorophore (10 μM). Curves were determined using a nonlinear regression analysis in Prism software and matched by least squares fitting to a standard dose-response model for 1:1 complexation.
The optimal sensors were chosen based on their low fluorescence in the absence of metabolite and the relative increase in fluorescence upon binding to the metabolite.

[6] = Truncation and mutagenesis of 24-2, DFHBI fluorescence; assay type: biochemical; conditions: with DFHBI
Experimental: Secondary structure prediction was performed using Mfold online software (Zuker, “Mfold Web Server for Nucleic Acid Folding and Hybridization Prediction,” Nucl. Acids Res. 31(13): 3406-3415 (2003), which is hereby incorporated by reference in its entirety). Mutated and truncated RNAs were created by ordering single stranded DNA templates (Integrated DNA Technologies) with the desired mutations or truncations and PCR amplifying these sequences to create double stranded DNA templates using primers which included a 5′ T7 promoter sequence. PCR products were then purified with PCR purification columns (Qiagen) and used as templates for in vitro T7 transcription reactions (Epicentre).

Which “cytotoxicity / phototoxicity upon illumination” value [1] does the source give for `CC1=NC(=Cc2cc(F)c(O)c(F)c2)C(=O)N1C` [DFHBI, 4-(3,5-difluoro-4-hydroxybenzylidene)-1,2-dimethyl-imidazol-5-one] here?
Its value is “negligible phototoxicity”.

What about the “nonspecific fluorescence activation upon incubation with cells” value [2] of the same molecule?
The value was “does not exhibit nonspecific fluorescence activation”.

B1: ADP sensor: Spinach-based turn-on RNA sensor for ADP, transducer stem 3 (nucleic acid)
chain: GACGCGACUGAAUGAAAUGGUGAAGGACGGGUCCAGCACGAGGGGGAAACCCCGGACAAUCAGACACGGUGCUUGUUGAGUAGAGUGUGAGCUCCGUAACUAGUCGCGUC
modifications: listed as RNA, chemistry not given here
With B1 as the molecule, how does the “time to increase in fluorescence after ADP addition” value [3] read?
The value was “less than 10 s”.

What about the “sensor fluorescence after switch to succinate or glycerol” value [4] of the same molecule?
The value was “did not substantially increase fluorescence”.

And the “increase in sensor fluorescence over baseline after switch from glucose to acetate media” value ([4]; by 3 hr)?
The value was roughly 6 fold.

And the “increase in sensor fluorescence over baseline after switch from glucose to acetate media” value ([4]; within 30 min)?
The value was 1.8 fold.

What about the “increase in fluorescence in the presence of ADP” value ([5]; 10 μM DFHBI, 1 mM ADP, versus no ADP) of the same molecule?
The value was 20 fold and 18 fold.

What about the “molecular discrimination: activation by ATP, AMP, cAMP, NAD+” value ([5]; 1 mM competing molecules) of the same molecule?
The value was “negligibly activated; also recorded: specific for ADP”.

And the EC50 ([5]; dose-response, 10 μM fluorophore, read-out: half-maximal fluorescence (EC50), ADP)?
The EC50 was 270 µM.

B2: 24-2-min: final truncated (minimized) 24-2 sequence (nucleic acid)
chain: GACGCGACCGAAAUGGUGAAGGACGGGUCCAGUGCUUCGGCACUGUUGAGUAGAGUGUGAGCUCCGUAACUGGUCGCGUC
modifications: listed as RNA, chemistry not given here
For B2, which “fluorescence relative to full-length 24-2” value [6] is on record?
The value was roughly 95%.
